Data set [1] relates to MS2 coat protein. Put plainly: apparent KD of MS2 coat protein; designed switch direction (-1 OFF switch, 1 ON switch): 1; higher = weaker reporter binding. To be noted: Eterna round: R98. How it is done: (§1)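 RNA-MaP: designed FMN/MS2 RNA switches (84 nt design region) are transcribed on-chip within common flanks and titrated with SNAP-549-labelled MS2 coat protein (about 1-3000 nM) in 100 mM Tris pH 7.5, 80 mM KCl, 4 mM MgCl2, without or with 200 uM FMN. Median apparent KD per design; activation ratio = KD,OFF / KD,ON.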

Data set [2] has as its system MS2 coat protein. Briefly: apparent KD of MS2 coat protein; higher = weaker reporter binding. To be noted: Eterna round: R101. How it is done: as §1

Turning to “AAAACAUGAGGAUCACCCAUGUAAAGUUCGGAAAGUUAGAGUGAGGAUAUACAAAUUUUUAUUUAGUAGAAGGCACUGGGUACA [JR_SSNG3_Sub032Nu]”, the “apparent KD of MS2 coat protein” value in data set [1] (input ligand: FMN 200 uM) amounted to 0.0248 µM; in data set [1] (input ligand: none) it was 0.0267 µM.
On to “AAAACAUGAGGAUCACCCAUGUAUAGAUCGGUUGUUAGGAGUGAGGAUAUGCUUAAAAUAAGGUAGCAGAAGGCACUGGGUACA [JR_SSNG3_Sub071]”, for which the “apparent KD of MS2 coat protein” value in data set [1] (input ligand: FMN 200 uM) is 0.0236 µM; in data set [1] (input ligand: none), 0.0153 µM.
As to “AAACUGCCACAUGAGGAUCACCCAUGUAAAUAAAGUAUUUGAAGAAGGGCGAUAGCAAAGCUAUCGCAGGAUAUUCUCAGGCAG [#GuReductionToAU - jl-sng2-2.35] (puzzle (switch architecture): Inverted Same State NG 3)”, the “apparent KD of MS2 coat protein” value in data set [2] (input ligand: FMN 200 uM) is 0.00834 µM; in data set [2] (input ligand: none) it was 0.0437 µM.
“AAAUAAAAUAUAGGAUAUGGAAACAUGAGGAUCACCCAUGUAAAAUAAAAUAAAUAAUAAUAUAACCAGAAGGAUAAAAUAUAA [LRO002_SS NG 2]”: the “apparent KD of MS2 coat protein” value is 0.0361 µM in data set [1] (input ligand: FMN 200 uM) and 0.0339 µM in data set [1] (input ligand: none).
“AAAUAAACCUUAGGAUAUGACUCCGAAACGGAGUCAGAAGGGAGGAUCACCCUCUUCAGCUCAGCGUCGAAAGACGCUGAGCAA [#SharedSequence ExNG1 - 21] (puzzle (switch architecture): Exclusion NG 1)”: the “apparent KD of MS2 coat protein” value in data set [2] (input ligand: FMN 200 uM) is 0.0633 µM; in data set [2] (input ligand: none), 0.0729 µM.
Turning to “AAAUAAAUUGAAGGAUAUCAGGGUGCACCUCAGUAAAACUGAGGUGCACCCUGAGAAGGUCGAGGAUCACCCGACCUAAAUAAA [#SharedSequence SLExNG1: 4-2] (puzzle (switch architecture): Small Loop Exclusion NG 1)”, the “apparent KD of MS2 coat protein” value in data set [2] (input ligand: FMN 200 uM) was determined as 0.00837 µM; in data set [2] (input ligand: none) it was 0.00763 µM.
On to “AAAUGUACGAAGAAGGCUCUGCCACUGGCCGAGAGAGGAUAUUCACACAUGAGGAUCACCCAUGUCGAACAAAGUACACAGAGC [EternaBot1858] (puzzle (switch architecture): Inverted Same State NG 1)”, for which the “apparent KD of MS2 coat protein” value in data set [2] (input ligand: FMN 200 uM) came to 0.00705 µM.
In the case of “AAGAUACUUACAGGAUAUAGGGCAGAGGGUGCCCUAGAAGGGUGAACAUGAGGAUCACCCAUGUAUGUAUCAGAUUAGAAGGCA [Inleesti]”, the results for the “apparent KD of MS2 coat protein” value in data set [1] (input ligand: FMN 200 uM) and in data set [1] (input ligand: none) were 0.0634 µM and 0.0433 µM, respectively.
As to “AAUAAUUCUCAAGGAUAUGACUCCGAAACGGAGUCAGAAGGUGAGGAUCACCCACCUAGCUCAGCGUCGAAAGACGCUGAGCAA [#SharedSequence ExNG1 - 35] (puzzle (switch architecture): Exclusion NG 1)”, the “apparent KD of MS2 coat protein” value in data set [2] (input ligand: FMN 200 uM) amounted to 0.314 µM; in data set [2] (input ligand: none) it was 0.0184 µM.
For “ACACGUCGUGAGAAGGAGGAUCACCCUUUCGAAAGAAAUAGCCACCGUGAAAACGGUGGCAGAUUUUAGGAUAUCACGACGUGA [#SharedSequence - IExNG2: 9] (puzzle (switch architecture): Inverted Exclusion NG 2)” the same measures were 0.113 µM and 0.0883 µM.
Regarding “AGAAUGACAUGAGGAUCACCCAUGUUGGGAAAACCCGUAACUCAGGAUAUGUACGCGAAAGACCGACAGAAGGGAGAUCUACAC [Amaes]”, the results for the “apparent KD of MS2 coat protein” value in data set [1] (input ligand: FMN 200 uM) and in data set [1] (input ligand: none) were 0.0433 µM and 0.0374 µM, respectively.
Regarding “AGAGCUGCUCAGAAGGAGGAUCACCCUUUCGAAAGAAAUACGGAGGCUGAAAAGCCUCCGAAAUCCUAGGAUAUGAGCAGCUCA [#SharedSequence - IExNG2: 3] (puzzle (switch architecture): Inverted Exclusion NG 2)”, the “apparent KD of MS2 coat protein” value in data set [2] (input ligand: FMN 200 uM) was determined as 0.00743 µM; in data set [2] (input ligand: none), 0.791 µM.
On to “AGGAGAAAUGUAGGAUAUAUAUAUAUAUAUGGGCAAAGCGCAUAUAUAUAUAUAGAAGGACAUGAGGAUCACCCAUGUUUCCCU [#Lowering the energy 11] (puzzle (switch architecture): Small Loop Exclusion NG 1)”, for which the entries for the “apparent KD of MS2 coat protein” value in data set [2] (input ligand: FMN 200 uM) and in data set [2] (input ligand: none) were 0.0109 µM and 0.0108 µM, respectively.
As to “AUAGGUUAAGGAGGAUAUAGAGGGAGAAGUAAACAUGAGGAUCACCCAUGUAUUUAAUUAGUUUACUAGAAGGCUUGUGAUUGU”, the “apparent KD of MS2 coat protein” value in data set [1] (input ligand: FMN 200 uM) amounted to 0.0509 µM; in data set [1] (input ligand: none) it was 0.0459 µM.
The like results for “CAGCAAUUCUUAGGAUAUGCUCAGGAAUACUGAGCAGAAGGAAGAUAUACCUGAGGAUCACCCAGGUUAAACUGAAGCUGAAUA [Same State NG1 - A3C, U17G Submission 7B]” were, in that order, 0.0174 µM and 0.0157 µM.
For “CAUGUCCUCACAGGAUAUGCACCACUUUGUGGUGCAGAAGGGUGGAAACAUGAGGAUCACCCAUGUGGACAUGAUAUAUUUAAU [Denovo 7]” the same measures were 0.0224 µM and 0.164 µM.
As for “CCUGCACCUCAAGGAUAUCCAGUCGAAACGACUGGAGAAGGUGAGGAUCACCCAUCUAGCCUGACGAAAGUCAGGCAUGCAGGA [#SharedSequence - ExNG1-5] (puzzle (switch architecture): Exclusion NG 1)”, the “apparent KD of MS2 coat protein” value in data set [2] (input ligand: FMN 200 uM) worked out at 0.848 µM.
On to “CCUGCACUUCAAGGAUAUCCAGUCGAAACGACUGGAGAAGGUGAGGAUCACCCACCUAGCCUGACGAAAGUCAGGCAUGCAGGA [#SharedSequence - ExNG1-3] (puzzle (switch architecture): Exclusion NG 1)”, for which the “apparent KD of MS2 coat protein” value in data set [2] (input ligand: FMN 200 uM) is 0.00806 µM; in data set [2] (input ligand: none), 0.00862 µM.
With “CGAGACACUUGAGGAUAUGCUCAGGAUAACUGAGCAGAAGGCAGGAAAACCUGAGGAUCACCCAGGUAACUGGAAAGUCUCGAA [Same State NG1 - A3C, U17G Submission 5F-G46A]”, the entries for the “apparent KD of MS2 coat protein” value in data set [1] (input ligand: FMN 200 uM) and in data set [1] (input ligand: none) were 0.0169 µM and 0.0179 µM, respectively.
As to “CGCUAUGACAUGAGGAUCACCCAUGUAUACAUGGGAAUGACGUAGGAUAUGCAGAAGAUUAAAGUGCAGAAGGACGGCUUUGCG [JR #DistanceClose #Static #NP SSNG3 Sub063] (puzzle (switch architecture): Same State NG 3)”, the “apparent KD of MS2 coat protein” value is 0.214 µM in data set [2] (input ligand: FMN 200 uM) and 0.433 µM in data set [2] (input ligand: none).
As to “CUGCAAUUCUUAGGAUAUGCUCAGGAUAACUGAGCAGAAGGAAGAUAUACCUGAGGAUCACCCAGGUUAAACUGGAGCAGAAUA [Same State NG1 - A3C, U17G Submission 8B]”, the “apparent KD of MS2 coat protein” value in data set [1] (input ligand: FMN 200 uM) was found to be 0.0336 µM; in data set [1] (input ligand: none), 0.179 µM.
Consider “CUGCGAUUCUUAGGAUAUCGAGUGGAAUACACUCGAGAAGGAAGAAUAACCUGAGGAUCACCCAGGUAAUACUGAAGCAGAAUA [Same State NG1 - A3C, U17G Submission 9C]”, for which the “apparent KD of MS2 coat protein” value was found to be 0.0234 µM in data set [1] (input ligand: FMN 200 uM) and 0.0327 µM in data set [1] (input ligand: none).
Turning to “GCACUCAAGUUAGGAUAUGGAUCGGAAACCGAUCCAGAAGGAACACGAAAACAUGAGCAUCAGCCGUGUUCCAGAAACGAGUGC [SameSame 14 - Jieux - Same State NG 1]”, the “apparent KD of MS2 coat protein” value is 0.347 µM in data set [1] (input ligand: FMN 200 uM) and 0.917 µM in data set [1] (input ligand: none).
Take “GGACGUCACAUUAACAUGAGGAUCACCCAUGUCAAAAGACAUGAGGAUAUGGAUCCUAAUUGGAUCCAGAAGGCAUGGACGUCC [EliMod 1 - Jieux - Same State NG 3]”: the “apparent KD of MS2 coat protein” value in data set [1] (input ligand: FMN 200 uM) worked out at 0.0389 µM; in data set [1] (input ligand: none) it was 0.68 µM.
As for “GGAUCCAUCACAGGAUAUGCUGGACUUUGUCCAGCAGAAGGGUGACAUGAGGAUCACCCAUGUACAAAGGAUCCUAUAUUUAAU [Denovo 28]”, the “apparent KD of MS2 coat protein” value in data set [1] (input ligand: FMN 200 uM) worked out at 0.0452 µM; in data set [1] (input ligand: none), 0.377 µM.
“GGUCCAUCAUGAGGAUAUGGCACCUUAUUGGUGCCAGAAGGCAUGUCUUUUGACAUGAGGAUCACCCAUGUAAUAAAUUGGACC [Pyrimidine booster 6]”: the entries for the “apparent KD of MS2 coat protein” value in data set [1] (input ligand: FMN 200 uM) and in data set [1] (input ligand: none) were 0.13 µM and 1.92 µM, respectively.
For “GUAGCAUACCGAGGAUAUUCAUAUAUGAAAAUAACAUGAGGAUCACCCAUGUGGCGAAAGCCUUGGGAGAAGGCGGAAUGCUAC [Xeinanis 75 22]” the same measures were 0.0344 µM and 0.49 µM.
The like results for “GUGCACACUCGAGGAUAUCGGAGAUUUCUCCUUCGAGAAGGCGAUUCGUGCCGUGUUAUUCUGGACAUGAGGAUCACCCAUGUG [LRO026_SS NG 1 mod JR_SSNG1_Sub034]” were, in that order, 0.0354 µM and 0.11 µM.
The like results for “UAUAUAUGGUGAGGAUAUGCAAAGGAUCACCUUGUAGAAGGCAUCAGGGUAGAAGGUGCAAGGAUCACCUGUAAGGAUAUAUCC [pwkr2 ssNG1 DX.25]” were, in that order, 0.447 µM and 1.56 µM.
“UCACUCACGUCAGGAUAUGGAUCGGAAAACGAUCCAGAAGGGACCUGCAAACGUGAGGAUCACCCACGUUCCAAUAACGAGUGA [SameSame 11 - Jieux - Same State NG 1]”: the “apparent KD of MS2 coat protein” value in data set [1] (input ligand: FMN 200 uM) turned out to be 0.0297 µM; in data set [1] (input ligand: none), 0.0354 µM.
The like results for “UGAUCGCUUGGAGGAUAUCCAACUAUCAUAGUUGGAGAAGGCCAAGCUACAGAGCUAAGCUUGGAAGUCACUUCCGAUCAACAC [pwkr ssNG1 F9.4.3]” were, in that order, 0.0497 µM and 0.0591 µM.
For “UGGAUGGUAUGAGGAUAUGCGCGCGAAACGCGCGCAGAAGGCAUGUCAAUAGACAUGAGGAUCACCCAUGUAUUAUCCAUCCAA [MatMod 9 - Jieux - Same State NG 1]” the same measures were 0.0394 µM and 0.3 µM.
The like results for “UUUACAUGAGGAUCACCCAUGUCUGUCACGCGUGUGUGCAAUCAGGAUAUGAUCUCAAGAAUGAAUUAGAAGGGAUAACGUGAG [Attempt 5]” were, in that order, 0.354 µM and 0.366 µM.

Source of the values: the supplement of paper PMC9170038.
